Experimental data from patent publication US20210388087A1 (Chugai, published 2021).

Target: T1, CD3 epsilon homodimer protein (UniProt P07766 23-126)
T1 construct: also called CD3 (CD3 epsilon)
Test: SPR Biacore T200, CD3e homodimer on chip, vs unaltered GLS3000 antibody

T1 sequence (P07766 23-126): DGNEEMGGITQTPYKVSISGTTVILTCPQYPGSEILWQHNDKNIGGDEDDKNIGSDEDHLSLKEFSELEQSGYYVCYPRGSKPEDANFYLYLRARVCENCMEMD

Binder	ratio of amounts bound (Z=Y/X)
GLS3000 S27eR (antibody, name in Kabat numbering, V domains shown, one-arm IgG as m2) VH: QVQLVESGGGVVQPGRSLRLSCAASGFTFSNAWMHWVRQAPGKGLEWVAQIKAKSNNYATYYAESVKGRFTISRDDSKNSLYLQMNSLKTEDTAVYYCRYVHYGAYYGVDAWGQGTTVTVSS VL: DIVMTQSPLSLPVTPGEPASISCRSSQSLVHRNRNTYLHWYQQKPGQAPRLLIYKVSNRFSGVPDRFSGSGSGTDFTLKISRVEAEDVGVYYCGQGTQVPYTFGQGTKLEIK	1.58
GLS3000 S56F (antibody, name in Kabat numbering, V domains shown, one-arm IgG as m2) VH: QVQLVESGGGVVQPGRSLRLSCAASGFTFSNAWMHWVRQAPGKGLEWVAQIKAKSNNYATYYAESVKGRFTISRDDSKNSLYLQMNSLKTEDTAVYYCRYVHYGAYYGVDAWGQGTTVTVSS VL: DIVMTQSPLSLPVTPGEPASISCRSSQSLVHSNRNTYLHWYQQKPGQAPRLLIYKVSNRFFGVPDRFSGSGSGTDFTLKISRVEAEDVGVYYCGQGTQVPYTFGQGTKLEIK	1.32
GLS3000 S56M (antibody, name in Kabat numbering, V domains shown, one-arm IgG as m2) VH: QVQLVESGGGVVQPGRSLRLSCAASGFTFSNAWMHWVRQAPGKGLEWVAQIKAKSNNYATYYAESVKGRFTISRDDSKNSLYLQMNSLKTEDTAVYYCRYVHYGAYYGVDAWGQGTTVTVSS VL: DIVMTQSPLSLPVTPGEPASISCRSSQSLVHSNRNTYLHWYQQKPGQAPRLLIYKVSNRFMGVPDRFSGSGSGTDFTLKISRVEAEDVGVYYCGQGTQVPYTFGQGTKLEIK	1.05
GLS3000 S56G (antibody, name in Kabat numbering, V domains shown, one-arm IgG as m2) VH: QVQLVESGGGVVQPGRSLRLSCAASGFTFSNAWMHWVRQAPGKGLEWVAQIKAKSNNYATYYAESVKGRFTISRDDSKNSLYLQMNSLKTEDTAVYYCRYVHYGAYYGVDAWGQGTTVTVSS VL: DIVMTQSPLSLPVTPGEPASISCRSSQSLVHSNRNTYLHWYQQKPGQAPRLLIYKVSNRFGGVPDRFSGSGSGTDFTLKISRVEAEDVGVYYCGQGTQVPYTFGQGTKLEIK	0.92
GLS3000 S27eT (antibody, name in Kabat numbering, V domains shown, one-arm IgG as m2) VH: QVQLVESGGGVVQPGRSLRLSCAASGFTFSNAWMHWVRQAPGKGLEWVAQIKAKSNNYATYYAESVKGRFTISRDDSKNSLYLQMNSLKTEDTAVYYCRYVHYGAYYGVDAWGQGTTVTVSS VL: DIVMTQSPLSLPVTPGEPASISCRSSQSLVHTNRNTYLHWYQQKPGQAPRLLIYKVSNRFSGVPDRFSGSGSGTDFTLKISRVEAEDVGVYYCGQGTQVPYTFGQGTKLEIK	0.97
GLS3000 S52Y (antibody, name in Kabat numbering, V domains shown, one-arm IgG as m2) VH: QVQLVESGGGVVQPGRSLRLSCAASGFTFSNAWMHWVRQAPGKGLEWVAQIKAKSNNYATYYAESVKGRFTISRDDSKNSLYLQMNSLKTEDTAVYYCRYVHYGAYYGVDAWGQGTTVTVSS VL: DIVMTQSPLSLPVTPGEPASISCRSSQSLVHSNRNTYLHWYQQKPGQAPRLLIYKVYNRFSGVPDRFSGSGSGTDFTLKISRVEAEDVGVYYCGQGTQVPYTFGQGTKLEIK	1.12
GLS3000 S56E (antibody, name in Kabat numbering, V domains shown, one-arm IgG as m2) VH: QVQLVESGGGVVQPGRSLRLSCAASGFTFSNAWMHWVRQAPGKGLEWVAQIKAKSNNYATYYAESVKGRFTISRDDSKNSLYLQMNSLKTEDTAVYYCRYVHYGAYYGVDAWGQGTTVTVSS VL: DIVMTQSPLSLPVTPGEPASISCRSSQSLVHSNRNTYLHWYQQKPGQAPRLLIYKVSNRFEGVPDRFSGSGSGTDFTLKISRVEAEDVGVYYCGQGTQVPYTFGQGTKLEIK	0.71
GLS3000 S56K (antibody, name in Kabat numbering, V domains shown, one-arm IgG as m2) VH: QVQLVESGGGVVQPGRSLRLSCAASGFTFSNAWMHWVRQAPGKGLEWVAQIKAKSNNYATYYAESVKGRFTISRDDSKNSLYLQMNSLKTEDTAVYYCRYVHYGAYYGVDAWGQGTTVTVSS VL: DIVMTQSPLSLPVTPGEPASISCRSSQSLVHSNRNTYLHWYQQKPGQAPRLLIYKVSNRFKGVPDRFSGSGSGTDFTLKISRVEAEDVGVYYCGQGTQVPYTFGQGTKLEIK	1.46
GLS3000 S52D (antibody, name in Kabat numbering, V domains shown, one-arm IgG as m2) VH: QVQLVESGGGVVQPGRSLRLSCAASGFTFSNAWMHWVRQAPGKGLEWVAQIKAKSNNYATYYAESVKGRFTISRDDSKNSLYLQMNSLKTEDTAVYYCRYVHYGAYYGVDAWGQGTTVTVSS VL: DIVMTQSPLSLPVTPGEPASISCRSSQSLVHSNRNTYLHWYQQKPGQAPRLLIYKVDNRFSGVPDRFSGSGSGTDFTLKISRVEAEDVGVYYCGQGTQVPYTFGQGTKLEIK	0.63
GLS3000 S52Q (antibody, name in Kabat numbering, V domains shown, one-arm IgG as m2) VH: QVQLVESGGGVVQPGRSLRLSCAASGFTFSNAWMHWVRQAPGKGLEWVAQIKAKSNNYATYYAESVKGRFTISRDDSKNSLYLQMNSLKTEDTAVYYCRYVHYGAYYGVDAWGQGTTVTVSS VL: DIVMTQSPLSLPVTPGEPASISCRSSQSLVHSNRNTYLHWYQQKPGQAPRLLIYKVQNRFSGVPDRFSGSGSGTDFTLKISRVEAEDVGVYYCGQGTQVPYTFGQGTKLEIK	1.05
GLS3000 S27eY (antibody, name in Kabat numbering, V domains shown, one-arm IgG as m2) VH: QVQLVESGGGVVQPGRSLRLSCAASGFTFSNAWMHWVRQAPGKGLEWVAQIKAKSNNYATYYAESVKGRFTISRDDSKNSLYLQMNSLKTEDTAVYYCRYVHYGAYYGVDAWGQGTTVTVSS VL: DIVMTQSPLSLPVTPGEPASISCRSSQSLVHYNRNTYLHWYQQKPGQAPRLLIYKVSNRFSGVPDRFSGSGSGTDFTLKISRVEAEDVGVYYCGQGTQVPYTFGQGTKLEIK	1.2
GLS3000 S27eW (antibody, name in Kabat numbering, V domains shown, one-arm IgG as m2) VH: QVQLVESGGGVVQPGRSLRLSCAASGFTFSNAWMHWVRQAPGKGLEWVAQIKAKSNNYATYYAESVKGRFTISRDDSKNSLYLQMNSLKTEDTAVYYCRYVHYGAYYGVDAWGQGTTVTVSS VL: DIVMTQSPLSLPVTPGEPASISCRSSQSLVHWNRNTYLHWYQQKPGQAPRLLIYKVSNRFSGVPDRFSGSGSGTDFTLKISRVEAEDVGVYYCGQGTQVPYTFGQGTKLEIK	1.55
GLS3000 S27eV (antibody, name in Kabat numbering, V domains shown, one-arm IgG as m2) VH: QVQLVESGGGVVQPGRSLRLSCAASGFTFSNAWMHWVRQAPGKGLEWVAQIKAKSNNYATYYAESVKGRFTISRDDSKNSLYLQMNSLKTEDTAVYYCRYVHYGAYYGVDAWGQGTTVTVSS VL: DIVMTQSPLSLPVTPGEPASISCRSSQSLVHVNRNTYLHWYQQKPGQAPRLLIYKVSNRFSGVPDRFSGSGSGTDFTLKISRVEAEDVGVYYCGQGTQVPYTFGQGTKLEIK	1.08
GLS3000 S56D (antibody, name in Kabat numbering, V domains shown, one-arm IgG as m2) VH: QVQLVESGGGVVQPGRSLRLSCAASGFTFSNAWMHWVRQAPGKGLEWVAQIKAKSNNYATYYAESVKGRFTISRDDSKNSLYLQMNSLKTEDTAVYYCRYVHYGAYYGVDAWGQGTTVTVSS VL: DIVMTQSPLSLPVTPGEPASISCRSSQSLVHSNRNTYLHWYQQKPGQAPRLLIYKVSNRFDGVPDRFSGSGSGTDFTLKISRVEAEDVGVYYCGQGTQVPYTFGQGTKLEIK	0.77

Further lines, results first:

ratio of amounts bound (Z=Y/X)	Binder
1.02	GLS3000 S56L (antibody, name in Kabat numbering, V domains shown, one-arm IgG as m2) VH: QVQLVESGGGVVQPGRSLRLSCAASGFTFSNAWMHWVRQAPGKGLEWVAQIKAKSNNYATYYAESVKGRFTISRDDSKNSLYLQMNSLKTEDTAVYYCRYVHYGAYYGVDAWGQGTTVTVSS VL: DIVMTQSPLSLPVTPGEPASISCRSSQSLVHSNRNTYLHWYQQKPGQAPRLLIYKVSNRFLGVPDRFSGSGSGTDFTLKISRVEAEDVGVYYCGQGTQVPYTFGQGTKLEIK
0.93	GLS3000 S52A (antibody, name in Kabat numbering, V domains shown, one-arm IgG as m2) VH: QVQLVESGGGVVQPGRSLRLSCAASGFTFSNAWMHWVRQAPGKGLEWVAQIKAKSNNYATYYAESVKGRFTISRDDSKNSLYLQMNSLKTEDTAVYYCRYVHYGAYYGVDAWGQGTTVTVSS VL: DIVMTQSPLSLPVTPGEPASISCRSSQSLVHSNRNTYLHWYQQKPGQAPRLLIYKVANRFSGVPDRFSGSGSGTDFTLKISRVEAEDVGVYYCGQGTQVPYTFGQGTKLEIK
0.33	GLS3000 S52P (antibody, name in Kabat numbering, V domains shown, one-arm IgG as m2) VH: QVQLVESGGGVVQPGRSLRLSCAASGFTFSNAWMHWVRQAPGKGLEWVAQIKAKSNNYATYYAESVKGRFTISRDDSKNSLYLQMNSLKTEDTAVYYCRYVHYGAYYGVDAWGQGTTVTVSS VL: DIVMTQSPLSLPVTPGEPASISCRSSQSLVHSNRNTYLHWYQQKPGQAPRLLIYKVPNRFSGVPDRFSGSGSGTDFTLKISRVEAEDVGVYYCGQGTQVPYTFGQGTKLEIK
0.92	GLS3000 S56N (antibody, name in Kabat numbering, V domains shown, one-arm IgG as m2) VH: QVQLVESGGGVVQPGRSLRLSCAASGFTFSNAWMHWVRQAPGKGLEWVAQIKAKSNNYATYYAESVKGRFTISRDDSKNSLYLQMNSLKTEDTAVYYCRYVHYGAYYGVDAWGQGTTVTVSS VL: DIVMTQSPLSLPVTPGEPASISCRSSQSLVHSNRNTYLHWYQQKPGQAPRLLIYKVSNRFNGVPDRFSGSGSGTDFTLKISRVEAEDVGVYYCGQGTQVPYTFGQGTKLEIK
1.16	GLS3000 S56A (antibody, name in Kabat numbering, V domains shown, one-arm IgG as m2) VH: QVQLVESGGGVVQPGRSLRLSCAASGFTFSNAWMHWVRQAPGKGLEWVAQIKAKSNNYATYYAESVKGRFTISRDDSKNSLYLQMNSLKTEDTAVYYCRYVHYGAYYGVDAWGQGTTVTVSS VL: DIVMTQSPLSLPVTPGEPASISCRSSQSLVHSNRNTYLHWYQQKPGQAPRLLIYKVSNRFAGVPDRFSGSGSGTDFTLKISRVEAEDVGVYYCGQGTQVPYTFGQGTKLEIK
0.99	GLS3000 S56I (antibody, name in Kabat numbering, V domains shown, one-arm IgG as m2) VH: QVQLVESGGGVVQPGRSLRLSCAASGFTFSNAWMHWVRQAPGKGLEWVAQIKAKSNNYATYYAESVKGRFTISRDDSKNSLYLQMNSLKTEDTAVYYCRYVHYGAYYGVDAWGQGTTVTVSS VL: DIVMTQSPLSLPVTPGEPASISCRSSQSLVHSNRNTYLHWYQQKPGQAPRLLIYKVSNRFIGVPDRFSGSGSGTDFTLKISRVEAEDVGVYYCGQGTQVPYTFGQGTKLEIK
1.05	GLS3000 S56H (antibody, name in Kabat numbering, V domains shown, one-arm IgG as m2) VH: QVQLVESGGGVVQPGRSLRLSCAASGFTFSNAWMHWVRQAPGKGLEWVAQIKAKSNNYATYYAESVKGRFTISRDDSKNSLYLQMNSLKTEDTAVYYCRYVHYGAYYGVDAWGQGTTVTVSS VL: DIVMTQSPLSLPVTPGEPASISCRSSQSLVHSNRNTYLHWYQQKPGQAPRLLIYKVSNRFHGVPDRFSGSGSGTDFTLKISRVEAEDVGVYYCGQGTQVPYTFGQGTKLEIK
